Test results reported in PMC9830914, “Differential effects of mutations of POPDC proteins on heteromeric interaction and membrane trafficking” (Acta Neuropathologica Communications, 2023).

Experiments:
POPDC1-VC155 (human) = POPDC1-VC155 (human) (UniProt Q8NE79); test: split reporter (BiFC, NanoBiT); BiFC in HEK293 cells, split Venus VC155 on POPDC1 and VN155 on POPDC2; Venus signal normalised to co-transfected mRFP and to the wild-type pair (set to 1); details: scale: relative to the wild-type pair
[1] = target: POPDC1 p.Q153X-VC155 (human) (UniProt Q8NE79); test: as above; details: scale: relative to the wild-type pair
POPDC1 p.S201F-VC155 = target: T1, POPDC1 p.S201F-VC155 (human, UniProt Q8NE79 1-360, p.S201F); test: as above; details: partners not purified
T1 construct: POPDC1 (BVES), human, full-length cDNA with the patient variant p.S201F; source: HEK293, transfected, in cells; not shown: split Venus VC155, C-terminal, kept
T1 sequence (looked up): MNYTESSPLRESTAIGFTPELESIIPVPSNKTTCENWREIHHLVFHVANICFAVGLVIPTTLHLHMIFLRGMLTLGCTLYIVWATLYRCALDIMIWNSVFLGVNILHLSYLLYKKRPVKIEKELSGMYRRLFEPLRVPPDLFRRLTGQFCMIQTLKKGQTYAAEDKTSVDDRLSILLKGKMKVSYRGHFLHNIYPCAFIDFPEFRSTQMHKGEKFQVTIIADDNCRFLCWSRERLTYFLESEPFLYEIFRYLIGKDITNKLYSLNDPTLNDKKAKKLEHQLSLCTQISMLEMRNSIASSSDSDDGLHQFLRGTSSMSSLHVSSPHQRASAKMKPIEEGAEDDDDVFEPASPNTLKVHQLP

[2] = target: the molecule itself; test: SDS-PAGE and Western blot of oligomer bands; COS-7 cells lysed in 4 M urea and 10% SDS without a reducing agent; anti-GFP antibody detects complexes that hold POPDC1-CFP
[3] = target: the molecule itself; test: FRET or BRET; type-1 quantitative NanoBRET in HEK293 cells; C-terminal NanoLuc and HaloTag (HaloTag-618 dye); expression ratios varied at constant total expression; curves compared to ideal curves for monomers, dimers and other stoichiometries

POPDC2 p.W188X-VN155 (from UniProt Q9HBU9 1-187) (domain or fragment)
BiFC signal relative to the wild-type pair (POPDC1-VC155 (human)): 0.59

B1: POPDC2-VN155 (natural protein, human, UniProt Q9HBU9 1-364, looked up)
chain: MSANSSRVGQLLLQGSACIRWKQDVEGAVYHLANCLLLLGFMGGSGVYGCFYLFGFLSAGYLCCVLWGWFSACGLDIVLWSFLLAVVCLLQLAHLVYRLREDTLPEEFDLLYKTLCLPLQVPLQTYKEIVHCCEEQVLTLATEQTYAVEGETPINRLSLLLSGRVRVSQDGQFLHYIFPYQFMDSPEWESLQPSEEGVFQVTLTAETSCSYISWPRKSLHLLLTKERYISCLFSALLGYDISEKLYTLNDKLFAKFGLRFDIRLPSLYHVLGPTAADAGPESEKGDEEVCEPAVSPPQATPTSLQQTPPCSTPPATTNFPAPPTRARLSRPDSGILASRIPLQSYSQVISRGQAPLAPTHTPEL
notes: POPDC2, human, full-length wild-type cDNA; also called wild-type POPDC2 with split Venus VN155; source: HEK293, transfected, in cells; not shown: split Venus VN155, C-terminal, kept
BiFC signal relative to the wild-type pair [1]: 0.248 | BiFC signal relative to the wild-type pair (POPDC1 p.S201F-VC155): 0.43 relative to the wild-type pair (set to 1)

B2: POPDC1-CFP (natural protein, human, UniProt Q8NE79 1-360, looked up)
chain: MNYTESSPLRESTAIGFTPELESIIPVPSNKTTCENWREIHHLVFHVANICFAVGLVIPTTLHLHMIFLRGMLTLGCTLYIVWATLYRCALDIMIWNSVFLGVNILHLSYLLYKKRPVKIEKELSGMYRRLFEPLRVPPDLFRRLTGQFCMIQTLKKGQTYAAEDKTSVDDRLSILLKGKMKVSYRGHFLHNIYPCAFIDSPEFRSTQMHKGEKFQVTIIADDNCRFLCWSRERLTYFLESEPFLYEIFRYLIGKDITNKLYSLNDPTLNDKKAKKLEHQLSLCTQISMLEMRNSIASSSDSDDGLHQFLRGTSSMSSLHVSSPHQRASAKMKPIEEGAEDDDDVFEPASPNTLKVHQLP
notes: POPDC1 (BVES), human, full length cDNA in pECFP-N1; printed molecular weight of POPDC1 41.5 kDa; also called POPDC1-ECFP; source: COS-7, transfected, in lysate (4 M urea, 10% SDS, no reducing agent); not shown: CFP, C-terminal, kept
stoichiometry N [2]: 2

B3: POPDC1 with C-terminal NanoLuc or HaloTag (NanoBRET constructs) (natural protein, human, UniProt Q8NE79 1-360, looked up)
chain: MNYTESSPLRESTAIGFTPELESIIPVPSNKTTCENWREIHHLVFHVANICFAVGLVIPTTLHLHMIFLRGMLTLGCTLYIVWATLYRCALDIMIWNSVFLGVNILHLSYLLYKKRPVKIEKELSGMYRRLFEPLRVPPDLFRRLTGQFCMIQTLKKGQTYAAEDKTSVDDRLSILLKGKMKVSYRGHFLHNIYPCAFIDSPEFRSTQMHKGEKFQVTIIADDNCRFLCWSRERLTYFLESEPFLYEIFRYLIGKDITNKLYSLNDPTLNDKKAKKLEHQLSLCTQISMLEMRNSIASSSDSDDGLHQFLRGTSSMSSLHVSSPHQRASAKMKPIEEGAEDDDDVFEPASPNTLKVHQLP
modifications: HaloTag-618 dye on the HaloTag copy
notes: POPDC1 (BVES), human cDNA cloned into pFC14K (HaloTag) or pFC32K (NanoLuc); Two differently tagged copies of one protein, written as one molecule: each copy carries only one of the two tags; With POPDC2-NL the HaloTag copy was used; also called POPDC1-NL; POPDC1-HT; source: HEK293, transiently transfected, in live cells; not shown: NanoLuc (on the copy POPDC1-NL), C-terminal, kept; HaloTag (on …)
stoichiometry N [3]: 2
